# B1: Biotinylated full length PcrA (Geobacillus stearothermophilus), wild type [modified: biotin; biotin] [Geobacillus stearothermophilus] / YvgS/HelD (SF1 helicase), Bacillus subtilis [B. subtilis 168 (endogenous in the cell … (parent)
# chain 1: MNFLSEQLLAHLNKEQQEAVRTTEGPLLIMAGAGSGKTRVLTHRIAYLMAEKHVAPWNILAITFTNKAAREMRERVQSLLGGAAEDVWISTFHSMCVRILRRDIDRIGINRNFSILDPTDQLSVMKTILKEKNIDPKKFEPRTILGTISAAKNELLPPEQFAKRASTYYEKVVSDVYQEYQQRLLRNHSLDFDDLIMTTIQLFDRVPDVLHYYQYKFQYIHIDEYQDTNRAQYTLVKKLAERFQNICAVGDADQSIYRWRGADIQNILSFERDYPNAKVILLEQNYRSTKRILQAANEVIEHNVNRKPKRIWTENPEGKPILYYEAMNEADEAQFVAGRIREAVERGERRYRDFAVLYRTNAQSRVMEEMLLKANIPYQIVGGLKFYDRKEIKDILAYLRVIANPDDDLSLLRIINVPKRGIGASTIDKLVRYAADHELSLFEALGELEMIGLGAKAAGALAAFRSQLEQWTQLQEYVSVTELVEEVLDKSGYREMLKAERTIEAQSRLENLDEFLSVTKHFENVSDDKSLIAFLTDLALISDLDELDGTEQAAEGDAVMLMTLHAAKGLEFPVVFLIGMEEGIFPHNRSLEDDDEMEEERRLAYVGITRAEEELVLTSAQMRTLFGNIQMDPPSRFLNEIPAHLLETASRRQAGASRPAVSRPQASGAVGSWKVGDRANHRKWGIGTVVSVRGGGDDQELDIAFPSPIGIKRLLAKFAPIEKV
# chain 2: MNQQDKEWKEEQSRIDEVLKELEKKERFLETSAGGLKHDIIGLRKSFWEDVKVNFDDAHEAIETMASIKQQAELLSDREHNHRRMDQQLKRIHQLKKSPYFGRIDFIENGEEQAERIYIGLASCLDEKEEHFLIYDWRAPISSLYYNYSPGKAEYEVPGETIEGEMVLKRQFMIKNGTLKAMFNTDMTIGDEMLQEVLSHHSDTQMKNIVSTIQKEQNQIIRNEKSKILIVQGAAGSGKTSAALQRVAYLLYRHRGVIDAGQIVLFSPNFLFNSYVSSVLPELGEENMEQATFQEYIEHRLGRKFKCESPFDQLEYCLTETKGGDFPTRLAGITWKAGLSFQQFINEYVTRLSSEGMIFKNIIFRGQKLITKEQIQSYFYSLDQNHSIPNRMEQTAKWLLSELNKLEKKERRKDWVVHEAELLDKEDYLDVYKKLQERKRFSESTFNDYQREQQLLAAIIVKKAFKPLKQAVRLLAFLDVTQLYLQLFSGWGGKFQHEKMDAIGELTRSAFTDNKLLYEDAAPFLYMQDLIEGRKKNTKIKHLFIDEAQDYSPFQMAYMRSIFPAASMTVLGDINQSIYAHTINGDQRMDACFEDEPAEYVRLKRTYRSTRQIVEFTKAMLQDGADIEPFNRSGEMPLVVKTEGHESLCQKLAQEIGRLKKKGHETIAVICKTAHQCIQAHAHMSEYTDVRLIHKENQPFQKGVCVIPVYLAKGIEFDAVLVYDASEEHYHTEHDRRLLYTACTRAMHMLAVFYTGEASPFVTAVPPHLYQIAE
# Variants of: B1
# Experiment: pulldown quantified by mass spectrometry
# Conditions: with YvgS/HelD (SF1 helicase), parent: 97, read off a plot
row,screen value,Variant
1,9.5,chain 1 K712A
2,3.5,chain 1 L714A
